Results on one molecule are retold here after patent US20110086767A1, “MUTANTS OF GLYCOSIDE HYDROLASES AND USES THEREOF FOR SYNTHESIZING COMPLEX OLIGOSACCHARIDES AND DISACCHARIDE INTERMEDIATES” (Institut Pasteur, priority 2008, published 2011).

Entries after “also recorded” stand apart in the source; their conditions may differ.

Type in all cases: biochemical
Data set [1] is described as follows: Kinetics of F290K and ASNPwt towards sucrose. On the procedure: Enzyme assays were carried out in a total volume of 2 mL containing pure enzyme (0.115 mg and 0.106 mg when using ASNPwt and F290K, respectively). Catalytic efficiency (Eff=kcat/KM) of ASNPwt and F290K variant was determined with both sucrose (D=Donor) and α-D-GlcpNAc-OAll (A=Acceptor) as variable substrates. […] For the determination of the catalytic efficiency for A, D was held constant at 250 mM and A was varied between 0 and 250 mM. Experiments were performed until A and D solubility limits were reached. For each experiment, the reaction velocity corresponding to the acceptor glucosylation was determined by the formation of α-D-Glcp-(1→4)-α-D-GlcpNAc-OAll (called Vi(Dp2)), corresponding to the kinetics of the reaction of interest.
(§1) Initial velocities were fitted to the Michaelis-Menten equation using Sigma-Plot. As saturation was not achieved with the mutant, efficiency was calculated by linear regression analysis of the velocity versus substrate concentration plot. Aliquots (200 μL) were removed between 0 and 60 min (at which time product formation was still linear with respect to time), heated at 95° C. for 5 min and centrifuged at 18 000 g for 5 min. The final mixtures were filtered on a 0.22 um membrane and analyzed using HPLC material previously described. […]

The nature of data set [2]: Kinetic parameters towards sucrose donor. The protocol:
Enzyme assays were carried out in a total volume of 2 mL containing pure enzyme (0.073 mg, 0.153 mg and 0.092 mg when using A289P-F290C, A289P-F2901 and A289P-F290L, respectively).
Kinetic studies of AS variants were performed in the presence of sucrose (0-500 mM). At regular time intervals (2-5 min), aliquots (200 μL) were removed, heated (95° C., 2 min) and centrifuged (18000 g, 5 min) All the samples were filtered on a 0.22 μm membrane and analyzed using HPLC material previously described. The initial rate of sucrose consumed, corresponding to the initial rate of fructose released, was expressed in mole of fructose released per minute and per gram of enzyme. The kinetic parameters kcat and Km were calculated using Eadie-Hofstee plot.

Data set [3] in a line: Glucosylation of α-D-GlcpNAc-OAll by purified F290D, F290K and ASNPwt (146 mM sucrose + 146 mM acceptor). The protocol: All assays were performed at 30° C. in 50 mM Tris buffer, pH=7.0. For the acceptor reactions, F290D, F290K and ASNPwt (1G5A) were tested on α-D-GlcpNAc-OAll.
(§2) Comparison of products synthesized by wild-type and AS variants. Reactions were performed in the presence of 146 mM sucrose alone or supplemented with 146 mM acceptor. The purified wild-type or mutated GST/AS were employed at 0.5 U/mL. The reactions were stopped by heating at 95° C. for 5 min. The final mixture was centrifuged at 18 000 g for 10 min, filtered on 0.22 μm membrane and analyzed by HPLC, as previously described.
(§3) Soluble and insoluble oligosaccharides produced during the reaction were identified by HPAEC using a Dionex Carbo-Pack PA100 column at 30° C. Before analysis, the insoluble fraction was solubilized in KOH at a final total sugar concentration of 10 g/kg. Mobile phase (150 mM NaOH) was set at 1 mL/min flow rate with a sodium acetate gradient (going from 6 to 500 mM within 120 min). Detection was performed using a Dionex ED40 module with a gold working electrode and an Ag/AgCl pH reference. Note that α-D-GlcpNAc-OAll (acceptor) and its derivatives are not oxidable products and thus are not detectable by HPAEC. Sucrose, glucose, fructose, α-D-GlcpNAc-OAll (acceptor) and its derivatives (glucosylation products) were quantified by HPLC, as previously described

Data set [4] in a line: Enzymatic glucosylation of D-GlcpNAc derivatives: D-GlcNHTCA. Conditions: sucrose:acceptor 1:1 (146 mM); estimated according to peak areas. On the procedure:
(§4) The mutant F290K and the ASNPwt were tested on other D-GlcNAc derivatives (α-D-GlcpNAc-OMe, β-D-GlcpNAc-OMe, β-D-GlcpNAc-Oallyl and D-GlcNHTCA) used as potential acceptors. The enzymatic reaction was carried out using sucrose as donor and D-GlcNAc derivative as acceptor in a 1:1 ratio (146 mM)
(§5) Efficiency of the glucosylation reaction was evaluated by HPLC analysis of the acceptor reaction product synthesized a Biorad HPLC Carbohydrate Analysis column (HPX-87K column (300×7.8 mm))
(§6) Percentages of glucosylation rates were estimated according to peak areas as no reference was available.

Data set [5] in a line: Enzymatic glucosylation of D-GlcpNAc derivatives: α-D-GlcpNAc-OMe. The following applies: sucrose:acceptor 1:1 (146 mM); estimated according to peak areas. The protocol: as §4, §5, §6
Data set [6] in a line: Kinetic parameters towards α-D-GlcpNAc-OAll acceptor. The following applies: 250 mM for both sucrose and α-D-GlcpNAc-OAll. On the procedure:
Enzyme assays were carried out in a total volume of 2 mL containing pure enzyme (0.037 mg, 0.076 mg and 0.046 mg when using A289P-F290C, A289P-F2901 and A289P-F290L, respectively).
The kcat/Km (α-D-GlcpNAc-OAll) value was calculated from the initial rate of formation of desired disaccharide (α-D-Glcp-(1→4)-α-D-GlcpNAc-OAll), corresponding to the initial rate of α-D-GlcpNAc-OAll consumed. As saturation was not achieved with the mutants, efficiency was calculated by linear regression analysis of the velocity versus substrate concentration plot.

Data set [7] can be described thus: Enzymatic glucosylation of D-GlcpNAc derivatives: β-D-GlcpNAc-OMe. Conditions: sucrose:acceptor 1:1 (146 mM); estimated according to peak areas. The protocol: as §4, §5, §6
Data set [8] in a line: Product profile with 146 mM sucrose alone (HPAEC). The following applies: t=24 h. On the procedure: as §2, §3
A short description of data set [9]: Kinetics of F290K and ASNPwt in the presence of acceptor α-D-GlcpNAc-OAll. On the procedure:
Enzyme assays were carried out in a total volume of 2 mL containing pure enzyme (0.115 mg and 0.106 mg when using ASNPwt and F290K, respectively). Catalytic efficiency (Eff=kcat/KM) of ASNPwt and F290K variant was determined with both sucrose (D=Donor) and α-D-GlcpNAc-OAll (A=Acceptor) as variable substrates. For the determination of the catalytic efficiency for D, A was held constant at 250 mM and D was varied between 0 and 600 mM. For the determination of the catalytic efficiency for A, D was held constant at 250 mM and A was varied between 0 and 250 mM. Experiments were performed until A and D solubility limits were reached. For each experiment, the reaction velocity corresponding to the acceptor glucosylation was determined by the formation of α-D-Glcp-(1→4)-α-D-GlcpNAc-OAll (called Vi(Dp2)), corresponding to the kinetics of the reaction of interest.
as §1

Setting [10] is: purified enzyme, Sucrose=Acceptor=146 mM, compared with ASNPwt.

B1: F290K: single mutant F290K of N. polysaccharea amylosucrase 1G5A (protein)
chain: SPNSQYLKTRILDIYTPEQRAGIEKSEDWRQFSRRMDTHFPKLMNELDSVYGNNEALLPMLEMLLAQAWQSYSQRNSSLKDIDIARENNPDWILSNKQVGGVCYVDLFAGDLKGLKDKIPYFQELGLTYLHLMPLFKCPEGKSDGGYAVSSYRDVNPALGTIGDLREVIAALHEAGISAVVDFIFNHTSNEHEWAQRCAAGDPLFDNFYYIFPDRRMPDQYDRTLREIFPDQHPGGFSQLEDGRWVWTTFNSFQWDLNYSNPWVFRAMAGEMLFLANLGVDILRMDAVAKIWKQMGTSCENLPQAHALIRAFNAVMRIAAPAVFFKSEAIVHPDQVVQYIGQDECQIGYNPLQMALLWNTLATREVNLLHQALTYRHNLPEHTAWVNYVRSHDDIGWTFADEDAAYLGISGYDHRQFLNRFFVNRFDGSFARGVPFQYNPSTGDCRVSGTAAALVGLAQDDPHAVDRIKLLYSIALSTGGLPLIYLGDEVGTLNDDDWSQDSNKSDDSRWAHRPRYNEALYAQRNDPSTAAGQIYQDLRHMIAVRQSNPRFDGGRLVTFNTNNKHIIGYIRNNALLAFGNFSEYPQTVTAHTLQAMPFKAHDLIGGKTVSLNQDLTLQPYQVMWLEIA
For B1, in data set [1] (sucrose alone, compared with ASNPwt, linear regression), the “decrease of kcat/Km in the presence of sucrose alone” value came to 40 fold. In [1] (sucrose varied between 0 and 600 mM), the saturation with sucrose result is reported as “could not be saturated”. Also, the “V250mM (initial rate of sucrose consumption)” value in data set [2] (250 mM sucrose) is 110 µmol/min/g. The “behaviour (at high concentration)” value in data set [2] (sucrose donor alone) is “no kinetic saturation; also recorded: linear”. Further, the “maltooligosaccharide formation on addition of acceptor” value in data set [3] (146 mM sucrose supplemented with 146 mM α-D-GlcpNAc-OAll, t=24 h) was “totally suppressed”. In data set [3] (setting [10]), the “times more efficient for α-D-GlcpNAc-OAll glucosylation” value is given as 10 times and the “times more efficient to form α-D-Glcp-(1→4)-D-GlcpNAc-OAll” value is 20 times. The “glucosylation of acceptor D-GlcNHTCA” value in data set [4] is greater than 95%. Also, the “glucosylation of acceptor α-D-GlcpNAc-OMe” value in [5] is greater than 95%. Moreover, the “V250mM (initial rate of acceptor consumption)” value in [6] was 6690 µmol/min/g. The “glucosylation of acceptor β-D-GlcpNAc-OMe” value in data set [7] is reported as 65-70%. Also, the “length of maltooligosaccharides synthesized in the absence of acceptor” value in data set [8] is given as no more than 20 DP. The “increase of the efficiency of the mutant compared to ASNPwt” value in data set [9] came to 130 fold.
